This data set in a line: soluble fraction after stress (log2 fold change); higher = more stays soluble; pooled small domains, quantitative proteomics. The following applies: stress: 50 degC. The essentials:
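After stress at 50°C, the amount of each protein still soluble was measured. This was done on pooled custom libraries of small protein domains, using high-throughput quantitative proteomics. The figure given is a base-two log fold change and stands for aggregation propensity, with higher values meaning more protein stays in solution.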
On to “HMKNVENIILEQLKKNIYDDLNNASFEEIILIDAEKSIYKGTIKANYIEYNFKINLSTGEILKWKLK”, for which the “soluble fraction (log2)” value is -0.117.
In the case of “HMKYSNDFDKVSYSLGLSIASNLISSGVKTLNAEAFNDGLATVFEGRMPEINPDEANKILQNFFEGLQKE”, the “soluble fraction (log2)” value turned out to be 0.0191.
Turning to “HMSLNQRIKEARIKMGYTQEQLGNLIGVAKTTISGYEKNREPDAATIGLIIDALKVDANFLFQ”, the “soluble fraction (log2)” value was -1.62.
Regarding “HMGEDPYQMLGLTRQASDEEVRLAWRKLMRENHPDSLASRGVPQEFVKRATEQVAQINAAWDRIKRERG”, the “soluble fraction (log2)” value stood at 0.0386.
In the case of “HMAAGKGVTTGSVRLRKGSNTDSAIIATLKKDTELILYGKKDGWYSVKTSDGTEGFVSSKYVKVTEAY”, the “soluble fraction (log2)” value was determined as 0.313.
Under “HMRYPLPYAFARSQQLLLEETDDGRYTLWMSSHPARSAVGEVSRKYGVQTFEVLADGPLAQRISAAYAQ” stands -1.37; under “HMGPEVQLAYSEFLAKVKVGEVNDVMVKGNEIHGHFSDGRTFSTYSPNDPDLVEKLNKNKVMIKAAPP”, 0.0475.
Regarding “HMAEDLRTLDGIDEDLLRDLAQAGITTRDGLAELSIDELREITGVEPGEAEKIILAARAHWFETDE”, the “soluble fraction (log2)” value is -0.135.
Under “HMVPDGFDQLTEREYQVAMAVGKGLNNKEIASQLGLGERTVKAHLTTTFEKLHVRDRVQLALIVNRL” stands -0.556; under “HMGEELIEIQNLRNKERREAEAILKNLDLVPVIQEQFDDTVPINRVITTDPGPDSTVKKGTTVMIYVSKGP”, 0.253.
The same measure for “HMEQQVDYTQFIQDVRQGQIREVDVDRNGVINGIKRSGENFVTVIPGGYDRDLINDLVKQGVNATGEL”: 0.107; for “HMKIDEVSFAYIERTLFSMLGKLPTPVNKVIATIGEEKKETIWEVIRFLESENKLITNEDGTLQL”: -1.55; for “HMGFLTGNTQGEVNRKTKNQMVNIFLPTTPNPTSGFLLFVPKKDILRLTMTVEEGIKMIISAGMLTPS”: -0.173.
“HMGEVVRAPMPGNVLKMEVAQGQEVEEGDLLLVLEAMKMENDIVAPKGGIVIQLVVDKGMVVETDDPLVVI”: the “soluble fraction (log2)” value was 0.0323.
As to “HMQPLRQGDFVTSEVVKVQDGTAVLRTAQGTLLSASLTGNLGLLPGDRVETVVVEASPGRFVLRVLDIIR”, the “soluble fraction (log2)” value is -0.15.
Under “HMSKKAIVINLLKRPDGASLKDIMQATYWQAHSVRGFISGSLTKKMGLNVESFKRPDGERAYRIN” stands -2.3; under “HMFNRAVSDNEALQVREHFDRDATVMSLAKKYGVSTVTIQRILLGKTYRNVGGPLFDKATLKKRMGN”, -0.66; under “HMGTGTYQVWSANGLGVRMRSGPGTGYRILAVYSVGTSVTVLQKGAYWSYIRVGSRTGYMMNQFLVSG”, 0.139.
The same measure for “HMRTFFEIEQLKAYVGEEIQVKFEADSHKQTVLGKLISISEDFIEIENSKKGNLKISLDNYLTSKLIY”: -1.6; for “HMYDAEAINKFFDIENWDFGETFYFQELSAYIMNQLSPKLVTILIVPRQTTQAFGSLFEIKSEPDEIFAS”: -0.107.
For “HMREIDIWVAEDADSQRIDKYLSMVVEDLSRSRIASLIEGGSILVNGEVIRAKYKVKPADHITAAFEDEM”, the “soluble fraction (log2)” value is -0.72.
In the case of “HMRSGFAFSEEEIKHLDNIVSPLLIKGQSIHHISIFHKDEVMMSERTLYSYVNNGLFSARNIDMPRTVRMR”, the “soluble fraction (log2)” value amounted to 0.14.
Turning to “HMGKPPNNRIHRAKRDYALNLVKEHYPDFGPTLAAEKLAEHHGFTVSRETLRKWMIEDGIWLSRKQRR”, the “soluble fraction (log2)” value is -0.123.
Under “HMPKLPIIYVLDGHVNKNALTTSGKNKVWIEHELKKHHINSIKDVLIAMTDTEGKFYYQLYD” stands -1.44; under “HMKIPQFAVIKQYLEQQIKTAQWAPGRQIPTEQSLADTFSVSRMTARRAVQQLADAGLLERTQGSGTFVAD”, -0.145.
Under “HMNTLGTNIAKLRESQKLTQEELGKLSGVSRVSIYKIETGQSTPRDTTLQNIAEALHTTPSALRS” stands 0.142; under “HMSQLETEEAKRIVLKDLLRLYNNYNIIELEEDEFDRFITYLNMPYDFLQKTSDYDLAVSIKRMYASY”, -2.3.
Regarding “HMASAEDDLTRRARKLLTTSSMLKTLQPDTGERLQWLPQVVRLLAEGVEAPRIVVLIRRAMESG”, the “soluble fraction (log2)” value is -1.04.
For “HMSKYLAFTVKKNDELLPFIEKALNGISHTKAKAILANGGAMVNKNTITQYNYPLTPGMTVEISRH”, the “soluble fraction (log2)” value is 0.131.
As for “HMGTSRVQSILFDQSQWTINRAVHWLNTHHFISTKIDKTDKYLRFRQFDPNPDSHHATKRTSQGITFILE”, the “soluble fraction (log2)” value was -3.51.
In the case of “HMNVLGQTAIVRSLRLDATFGEVLLADGGAGLIFKARTHGDETFKKGDRVVLLEYLKDQHAYRVISETDFL”, the “soluble fraction (log2)” value is -1.94.
Consider “HMASFASRAEEVMTKLLANGQPRIKEVADAMHLSSRTLQRRLEREGVSFAELLDRLRKRLAHDMLAHS”, for which the “soluble fraction (log2)” value was -0.813.
Under “HMGTAGLSPWHKIAVLMIALGPEGASELMRHFGEDEVEQVVQAIADLKNVPSELQDAVLLEMEGALQEG” stands -0.00851; under “HMGLQEADKQDRIARMKELISFLNEAAKAYYQEGREIVSNLEYDKAYDALLSLEKESGVVLSGSPSQNVG”, 0.147.
With “HMQKPELLAPAGSLEKAKTAFKYGADAVYMGTSNLSLRSRVTVDDDELIKTIEYAHSINKKVYAALNIYAR”, the “soluble fraction (log2)” value was determined as 0.00596.
In the case of “HMPVEQVWHIAEAGKTKGPFSRASMGRMSADGALTRDTLVWTAGQDGWKKAADVTALATLFT”, the “soluble fraction (log2)” value is -0.0223.
The same measure for “HMNIMAQDWISSPMGPISFKSNQHGLVKIGWGEVPRENTEQPNLEFTRKWLVDYFEGKASPLPYF”: -0.329; for “HMYLYHDLSDEAKAMGDEYVSVEHLVLALIRYPNNAVKELFREFGITRERFLQVLSTIRGNQRVTSDNPEA”: 0.0309; for “HMAQISDEGLLRGLIVEMFEANPAVVEELLGGRDRKKGFVIGQIMKKTKGMANPALLDQLFYEELEKL”: -0.867.
Take “HMTAYENSIPLNWVIQKGDAKGLPLSANTARLLIDIVGIDLMDLDHELEKISLYLSGESITEEMIKEHIRG”: the “soluble fraction (log2)” value is -0.668.
As to “HMAGHKVDFSELPARSQAFIGKNFPTEMVKNVEMERKDAKDHYTVLLSNGTKVMFDGTSGELTGV”, the “soluble fraction (log2)” value is 0.0973.
Consider “HMTVAEVEDRMEASRVRQALDAVGEPHRTTIALAYFTGLTHTEIAQRMGVPLGTVKSRIRDGMAKMRTHLG”, for which the “soluble fraction (log2)” value is -0.617.
The same measure for “HMGRLTTKIVLYDRIENIVPERRKELVADIEKRIGVKVEVLEIGHVDFVRDAAWLKVSYYLAPGE”: -1.06; for “HMNLMQIHVARPPNQLGVFSQEEVAAGLQSGRFLPTDQAWRDGMSAWTPLSQWAEFSSVVAAV”: 0.083; for “HMETGLSNYEFKRIREQAEALLSDGQVRRINDLVDSIKNENAEKVIRVIRFLIDTEELILEDDRVSAKKS”: -0.0558.
As for “HMKPATSITFIPSERPDLVEQLSKITFDKKDSLYENYINLNWLTFEAISVYMREGDIIGFST”, the “soluble fraction (log2)” value was 0.0284.
For the sequence “HMSENDTILAKFASIINNKSLELVIFPDTAYLKGQVSTPEDKARAETVAQSLLGSKPLISLIEFE”, the “soluble fraction (log2)” value was -0.0145.
The same measure for “HMIPYQDPLPKGAEESLLSKYPGFEITGVHFVNDTNFIGYKVRLERGEDREEISLDVNGKFL”: 0.0829; for “HMEEVVIPDLAGLTEEEATKVLMAKELKLKVSGSQHSDIEKGLIISQDPPAGEKGAKNSQVAVVTSSG”: 0.103.
As to “HMTTRLLTPRQRQVFDIAIREGFYDSPRRISLTELADLLGVAKSTLSVQLQRVESTIVHTFSEEIRRRS”, the “soluble fraction (log2)” value was -2.57.
Turning to “HMAPTADSVPFVIRSVVGGAQPFIVLEDGSKLLVGGVYRKYRLVAVENTRIIFEGPRTAIVT”, the “soluble fraction (log2)” value was -1.33.
Consider “HMLKDININVTGLDQISNAKLINNLNLLKMNNLFFLDEKKIKKILNSNNLIEKFFIFKKYPSTLDIKVYKT”, for which the “soluble fraction (log2)” value was -0.0369.
As to “HMYAGTVTQVKNNKVMLEFDGETVNVGDQFFILNSDGKKVAIVEITAAKNKKALANVLKGKAVVDGTTQAK”, the “soluble fraction (log2)” value is -0.111.
Consider “HMSTLGIRIKHYRTDSNLTQKELAGLINVKRDALANWETDRALPDVMNLKKLAEVFQVSTDELLQV”, for which the “soluble fraction (log2)” value was -0.927.
For the sequence “HMNEKLNEYLNQVKAYLNTSDNKEDIIKELEAVVLEKAEKKYGQITDESISKILSEFGSPAEVAKEYS”, the “soluble fraction (log2)” value is 0.129.
Under “HMSGAWEVGLLRQFTDWMGTQYNAYAGRNFDAITVAQVAEKNPELLTPFVESFFKERVEPALAAG” stands -0.849; under “HMASDYYTTTANLNLRSGAGTTYGSLIIIEKGDTVKLLENVNDHWVKIQYDDKIGYVAMSYLLPIE”, -0.484.
“HMKIDNIIIYITGGVKKEGVYELPDGSRISDAIEQAEGLKANADTSSINLAYKLEDGMKIKIPLQGEN”: the “soluble fraction (log2)” value was -0.0298.
For “HMIMTGSIQEKNGKYYTVLNIKDKNGKYKKKWQTTGLPVKGNKRKAEQILRRRIAEYEANQL”, the “soluble fraction (log2)” value is -0.436.
Turning to “HMDHVEDRMVLEVVLKKLTEEERRIVMLHAVSGLKHREIAKALDIPLSTVLSKYKRTLKKLEAYLMEME”, the “soluble fraction (log2)” value was -1.78.
In the case of “HMFQPEQISKLNELETLVLDFIIKSPDKVQKATIRSLATQLHVSTTTIVRMSTKLGFNGWSELKFFLKNQS”, the “soluble fraction (log2)” value is -2.15.
“HMPPLKYLKVKSYLEAVAVKAESAMRMPTVRELMNQFNVSLATVNRALSELENDGVIVRRQGSGIVAAG”: the “soluble fraction (log2)” value is 0.147.
For “HMKNSKIVIQKRHNHILELLKQNRTMDVTVLAERLGVTGATIRRDLKKLEQEGTIVRSFGKVSFVG”, the “soluble fraction (log2)” value was -0.867.
Regarding “HMEAFELTPREKQVLQLLVQGKAYKIIAADLDITYDTVRAHIKKIYEKLHVGSMTEAVAKAIQHKL”, the “soluble fraction (log2)” value is -0.882.
Turning to “HMEQAMIVILKENPDRRQLEFLTGWLQKQQIGIHISEGAHQTVLGLVGDATRLDIDMLKQMEIVEDVKRVQ”, the “soluble fraction (log2)” value is -0.0829.
Consider “HMHLLPAREQVAAYLRKAILRQEIREGTILNLADTARQMGVSVTPVREALQLLAAQGLVRLRPNKGAVVMG”, for which the “soluble fraction (log2)” value is -0.891.
On to “HMPVGVPGVVYNTDSLNVRKGAGTNYDIVSKLKRGSVIEVLEQTAVDGTVWGRIAEGWVNMEYVSL”, for which the “soluble fraction (log2)” value is -0.43.
As for “HMANKQLQEKLKNYISENGSLSSAAKAIGLSPATLSTYLKDKYEGNVANVETRLTEIFETVEAANNLL”, the “soluble fraction (log2)” value was -0.258.

Source of the values: the domain aggregation screens of Martell et al. (2025).
